According to publication PMC8599769:
Where two headings read alike, the source gives them in different places.

Target: T1, PhoB~P (phosphorylated response regulator PhoB) (Escherichia coli) (UniProt P0AFJ5)
T1 sequence: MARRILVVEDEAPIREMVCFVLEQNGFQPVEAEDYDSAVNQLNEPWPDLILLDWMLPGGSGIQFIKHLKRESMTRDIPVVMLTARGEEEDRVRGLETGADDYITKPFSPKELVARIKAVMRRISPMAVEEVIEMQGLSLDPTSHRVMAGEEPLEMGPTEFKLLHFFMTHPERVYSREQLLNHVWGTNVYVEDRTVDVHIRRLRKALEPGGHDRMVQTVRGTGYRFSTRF
Assay: EMSA

Substance | Kd | Kd (cited from earlier work)
ATCACATGGTCCTGCTGGAGTTCGTGACCGCCGCCGGGATCACTCTCGGCATGGACGAGCTGTACAAGTAGCTGACCCGGGGAGGGTCGTTCTGTCATAAAACTGTCATATTCCACCGGGAAGGCTTGAGCTCCTAGATACATTCAAATATGTATCCGCTCATGAGACAATAACCCTGATA (double strand) [Decoy DNA (1 PhoB consensus site)] | 200 nM | –
phnC promoter PhoB site DNA | – | 1500 nM
